From patent publication US20230287125A1 (LEPU BIOPHARMA, published 2023)
Substitutions are numbered along the chain they refer to. Each block holds one molecule with its values, some of them ahead of it.

Key:
[1] = molecular target: PD-L1 on PD-L1 target cells (Homo sapiens (Human)) (UniProt Q9NZQ7); assay: cell-based or functional assay
rat TGF-β protein (rat) = assay: ELISA, coated rat TGF-β
[2] = molecular target: mouse TGF-β protein (mouse); assay: ELISA, coated mouse TGF-β
[3] = molecular target: human TGF-β protein (human) (UniProt P01137); assay: ELISA, coated human TGF-β
human TGF-β protein (human), sequence (P01137 279-390 limits assumed): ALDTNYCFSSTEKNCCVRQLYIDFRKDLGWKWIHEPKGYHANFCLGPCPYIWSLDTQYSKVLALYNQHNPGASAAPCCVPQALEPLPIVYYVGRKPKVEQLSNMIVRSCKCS

mouse PD-L1 protein = mouse PD-L1 protein (mouse, UniProt Q9EP73 19-239); assay: ELISA, coated mouse PD-L1
mouse PD-L1 protein, sequence (Q9EP73 19-239 limits assumed): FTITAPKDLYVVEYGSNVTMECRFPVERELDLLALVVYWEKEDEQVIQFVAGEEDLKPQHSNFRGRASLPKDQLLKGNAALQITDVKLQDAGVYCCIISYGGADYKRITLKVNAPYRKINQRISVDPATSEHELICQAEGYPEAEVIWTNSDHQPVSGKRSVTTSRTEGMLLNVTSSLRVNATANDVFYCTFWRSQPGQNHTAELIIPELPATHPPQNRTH
Method: (§1) ELISA testing was carried out to evaluate the binding of chimeric antibodies to human, mouse, rat, and cynomolgus PD-L1, respectively.
(§2) Briefly, microtiter plates were coated with human, mouse, rat and cynomolgus PD-L1 proteins at 0.5 μg/ml in PBS, 100 μl/well at 4° C. overnight, then blocked with 150 μl/well of 1% BSA. Three-fold dilutions of chimeric antibodies starting from 10 μg/ml were added to each well and incubated for 1 hour at 37° C. The plates were washed with PBS/Tween and then incubate with mouse-anti-human IgG Fab antibody conjugated with Horse Radish Peroxidase (HRP) for 30 mins at 37° C. After washing, the plates were developed with TMB substrate and analyzed by spectrophotometer at OD 450 nm.

[4] = molecular target: cynomolgus TGF-β protein (cynomolgus); assay: ELISA, coated cynomolgus TGF-β
cynomolgus TGF-β protein (cynomolgus), sequence (P09533 279-390): as the sequence (P01137 279-390 limits assumed) above

rat PD-L1 protein = rat PD-L1 protein (rat, UniProt D4AE25 19-239); assay: ELISA, coated rat PD-L1
rat PD-L1 protein, sequence (D4AE25 entry or part of it limits assumed): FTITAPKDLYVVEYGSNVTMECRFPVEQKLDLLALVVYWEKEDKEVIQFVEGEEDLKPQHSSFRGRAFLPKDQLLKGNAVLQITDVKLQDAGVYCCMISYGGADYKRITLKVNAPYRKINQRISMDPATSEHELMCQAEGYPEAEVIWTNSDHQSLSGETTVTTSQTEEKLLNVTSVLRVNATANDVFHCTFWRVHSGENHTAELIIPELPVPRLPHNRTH
Method: as §1, §2

[5] = molecular target: human TGF-β protein (human) (UniProt P01137); assay: cell-based or functional assay
[6] = molecular target: T1, human PD-L1-his tag protein (human, UniProt Q9NZQ7 19-238); assay: ELISA, coated human PD-L1-His
T1 construct: also called human PD-L1-His protein; recombinant PD-L1 protein; not shown: his tag
T1 sequence (Q9NZQ7 19-238 limits assumed): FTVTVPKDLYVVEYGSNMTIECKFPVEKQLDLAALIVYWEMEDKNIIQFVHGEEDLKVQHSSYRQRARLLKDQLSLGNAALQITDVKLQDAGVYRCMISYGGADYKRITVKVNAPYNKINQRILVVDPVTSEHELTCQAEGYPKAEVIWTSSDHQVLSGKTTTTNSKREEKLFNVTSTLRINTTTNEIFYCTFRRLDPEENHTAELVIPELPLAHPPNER

cynomolgus PD-L1 protein = cynomolgus PD-L1 protein (cynomolgus, UniProt G7PSE7 19-238); assay: ELISA, coated cynomolgus PD-L1
cynomolgus PD-L1 protein, sequence (G7PSE7 entry or part of it): as the sequence (Q9NZQ7 19-238 limits assumed) above, with A33T, A34S, S62N, R68Q, Q82R, F173L, T185A, T192I, H215L counted along it
Method: as §1, §2

human PD-L1-Fc protein [7] = molecular target: T2, human PD-L1-Fc protein (human, UniProt Q9NZQ7 19-238); assay: receptor blocking ELISA: coated human PD-L1-Fc, blocked ligand biotin-labeled human CD80-Fc (Bio-CD80), OD 450nm; upper right panel
T2 construct: coating antigen of the ELISAs; also called rhPD-L1-Fc; not shown: Fc
T2 sequence (Q9NZQ7 19-238 limits assumed): as the sequence (Q9NZQ7 19-238 limits assumed) above
Method: (§3) Briefly, microtiter plates were coated with human PD-L1-Fc protein at 0.5 μg/ml in PBS, 100 μl/well at 4° C. overnight, then blocked with 150 μl/well of 1% BSA at 37° C. for 2 hours. […] The plates were washed with PBS/Tween and then incubated with Streptavidin-HRP for 10 mins at 37° C. After washing, the plates were developed with TMB substrate and analyzed by spectrophotometer at OD 450 nm.

human PD-L1-Fc protein [8] = molecular target: T2, human PD-L1-Fc protein; assay: receptor blocking ELISA: coated human PD-L1-Fc, blocked ligand biotin-labeled human PD-1-Fc (Bio-PD1), OD 450nm; upper right panel
Method: as §3

[9] = molecular target: T1, human PD-L1-his tag protein; assay: SPR (Biacore T200), mAb captured on Protein A chip, PD-L1-his injected
Method: The binding of the humanized antibodies to recombinant PD-L1 protein (human PD-L1-his tag) was tested by Biacore using a capture method. […] A serial dilution of human PD-L1-his tag protein was injected over captured antibody for 2 mins at a flow rate of 30 μl/min. The antigen was allowed to dissociate for 1500 s. All the experiment were carried out on a Biacore T200.

human PD-L1-Fc protein [10] = molecular target: T2, human PD-L1-Fc protein; assay: ELISA, antibody titrated on coated human PD-L1-Fc, OD 450nm; upper right panel
Method: as §2, with “To evaluate antigen binding activity, the humanized antibodies were subjected to ELISA test. Briefly,” for “Briefly,”, “with human PD-L1-Fc protein” for “with human, mouse, rat and cynomolgus PD-L1 proteins”, “with 200” for “with 150”, “of humanized” for “of chimeric”, “then incubated” for “then incubate”, “for 1 hour” for “for 30 mins”

[11] = molecular target: T3, human PD-L1 over-expressed on CHOK1 cells (human, UniProt Q9NZQ7 19-290); assay: flow cytometry (MFI) on PDL1-CHOK1 cells; upper left panel
T3 construct: whole, on cells; also called PDL1-CHOK1 cells
T3 sequence (Q9NZQ7 19-290): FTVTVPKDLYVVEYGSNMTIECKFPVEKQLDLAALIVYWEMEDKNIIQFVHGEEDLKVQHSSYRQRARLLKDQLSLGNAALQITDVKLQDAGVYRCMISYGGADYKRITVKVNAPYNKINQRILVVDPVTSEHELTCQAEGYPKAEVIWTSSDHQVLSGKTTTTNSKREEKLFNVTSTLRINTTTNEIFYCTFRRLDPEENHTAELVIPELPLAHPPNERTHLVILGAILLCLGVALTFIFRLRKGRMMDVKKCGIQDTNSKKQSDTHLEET
Method: (§4) To evaluate the antigen binding property, the humanized antibodies were analyzed for their binding to PD-L1 overexpressed on mammalian cells by FACS. Briefly, PDL1-CHOK1 cells were firstly incubated with 3-fold serious diluted humanized antibodies starting at 15 μg/ml at 4° C. for 40 mins. After washed by PBS, the Alexa Fluor® 647 AffiniPure Goat Anti-Human IgG (H+L) antibody was added to each well and incubated at 4° C. for 30 mins. The MFI of Alexa Fluor® 647 was evaluated by FACSCanto.

human PD-L1-Fc protein [12] = molecular target: T2, human PD-L1-Fc protein; assay: receptor blocking ELISA: coated human PD-L1-Fc, blocked ligand biotin-labeled human CD80-Fc (Bio-CD80), OD 450nm; lower left panel
Method: as §3

human PD-L1-Fc protein [13] = molecular target: T2, human PD-L1-Fc protein; assay: receptor blocking ELISA: coated human PD-L1-Fc, blocked ligand biotin-labeled human PD-1-Fc (Bio-PD1), OD 450nm; lower left panel
Method: as §3

human PD-L1-Fc protein [14] = molecular target: T2, human PD-L1-Fc protein; assay: ELISA, antibody titrated on coated human PD-L1-Fc, OD 450nm; lower left panel
Method: as §2, with “To evaluate antigen binding activity, the humanized antibodies were subjected to ELISA test. Briefly,” for “Briefly,”, “with human PD-L1-Fc protein” for “with human, mouse, rat and cynomolgus PD-L1 proteins”, “with 200” for “with 150”, “of humanized” for “of chimeric”, “then incubated” for “then incubate”, “for 1 hour” for “for 30 mins”

[15] = molecular target: T3, human PD-L1 over-expressed on CHOK1 …; assay: flow cytometry (MFI) on PDL1-CHOK1 cells; lower right panel
Method: as §4

[16] = molecular target: T1, human PD-L1-his tag protein; assay: SPR (Biacore), affinity ranking, PDL1-His
human PD-L1-Fc protein [17] = molecular target: T2, human PD-L1-Fc protein; assay: receptor blocking ELISA: coated human PD-L1-Fc, blocked ligand biotin-labeled human PD-1-Fc (Bio-PD1), OD 450nm; middle right panel
Method: as §3

human PD-L1-Fc protein [18] = molecular target: T2, human PD-L1-Fc protein; assay: receptor blocking ELISA: coated human PD-L1-Fc, blocked ligand biotin-labeled human CD80-Fc (Bio-CD80), OD 450nm; middle right panel
Method: as §3

[19] = molecular target: T3, human PD-L1 over-expressed on CHOK1 …; assay: flow cytometry (MFI) on PDL1-CHOK1 cells; upper right panel
Method: as §4

human PD-L1-Fc protein [20] = molecular target: T2, human PD-L1-Fc protein; assay: receptor blocking ELISA: coated human PD-L1-Fc, blocked ligand biotin-labeled human CD80-Fc (Bio-CD80), OD 450nm [cont'd]
Method: as §3

human PD-L1-Fc protein [21] = molecular target: T2, human PD-L1-Fc protein; assay: ELISA, antibody titrated on coated human PD-L1-Fc, OD 450nm; lower right panel
Method: as §2, with “To evaluate antigen binding activity, the humanized antibodies were subjected to ELISA test. Briefly,” for “Briefly,”, “with human PD-L1-Fc protein” for “with human, mouse, rat and cynomolgus PD-L1 proteins”, “with 200” for “with 150”, “of humanized” for “of chimeric”, “then incubated” for “then incubate”, “for 1 hour” for “for 30 mins”

human PD-L1-Fc protein [22] = molecular target: T2, human PD-L1-Fc protein; assay: receptor blocking ELISA: coated human PD-L1-Fc, blocked ligand biotin-labeled human PD-1-Fc (Bio-PD1), OD 450nm [cont'd]
Method: as §3

PD-L1 on PD-L1 target cells (Homo sapiens (Human)), sequence (Q9NZQ7 19-290 limits assumed): as the sequence (Q9NZQ7 19-290) above
mouse TGF-β protein (mouse), sequence (P04202 279-390): as the sequence (P01137 279-390 limits assumed) above, with A75S counted along it
rat TGF-β protein (rat), sequence (P17246 279-390): as the sequence (P01137 279-390 limits assumed) above, with A75S counted along it

Molecule: M7824 (bintrafusp alfa)
EC50 (rat TGF-β protein (rat)): 0.124 µg/mL
EC50 [2]: 0.0462 µg/mL
EC50 [3]: 0.0434 µg/mL
EC50 (mouse PD-L1 protein): 0.0106 µg/mL
EC50 [4]: 0.0397 µg/mL
EC50 (rat PD-L1 protein): 0.0143 µg/mL
EC50, NFAT-RE-mediated luminescence, PD1 effector cells co-cultured with PD-L1 target cells [1]: 0.85 nM
IC50, TGF-β SBE luciferase reporter assay in 293 cells [5]: 0.0669 nM
EC50 [6]: 0.0237 µg/mL
EC50 (cynomolgus PD-L1 protein): 0.0256 µg/mL

B1: Hu47C6A3-2 (antibody, V domains shown)
VH: QVQLQESGPGLVKPSETLSLTCTVSGYSITSDYAWNWIRQPPGKGLEWIGYIIYSGSTSYNPSLKSRVTISRDTSKNQFSLKLSSVTAADTAVYYCARSTMIATNWFAYWGQGTLVTVSS
VL: DIQMTQSPSSLSASVGDRVTITCKASQDVSLAVAWYQQKPGKAPKLLIYWASTRHTGVPSRFSGSGSGTDFTLTISSLQPEDFATYYCQQHYITPWTFGGGTKVEIK
notes: humanized
IC50 (human PD-L1-Fc protein [7]): 0.165 µg/mL
IC50 (human PD-L1-Fc protein [8]): 0.0354 µg/mL
Kd [9]: 0.367 nM
koff [9]: 0.0009 s⁻¹
kon [9]: 2.45e+06 M⁻¹ s⁻¹
EC50 (human PD-L1-Fc protein [10]): 0.0117 µg/mL
EC50 [11]: 0.175 nM

B3: Hu89C10H8-11 (antibody, V domains shown)
VH: EVQLVESGGGLVKPGGSLRLSCAASGFTFSNYWMTWIRQAPGKGLEWVASITNTGSSTFYPDSVKGRFTISRDNAKNSLYLQMNSLRAEDTAVYYCTRDTTIAPFDYWGQGTMVTVSS
VL: DIQMTQSPSSLSASVGDRVTITCKASQNLNEYLNWYQQKPGKAPKRLIYKTNTLQAGIPSRFSGSGSGIDYTLTISSLQPEDFATYYCSQYNSGNTFGQGTKLEIK
notes: humanized
IC50 (human PD-L1-Fc protein [12]): 0.275 µg/mL
IC50 (human PD-L1-Fc protein [13]): 0.11 µg/mL
Kd [9]: 0.0983 nM
koff [9]: 5.54e-05 s⁻¹
kon [9]: 564000 M⁻¹ s⁻¹
EC50 [15]: 0.151 nM
EC50 (human PD-L1-Fc protein [10]): 0.00878 µg/mL
Kd [16]: 0.0961 nM
koff [16]: 6.73e-05 s⁻¹
kon [16]: 700000 M⁻¹ s⁻¹

B5: Hu67F3G7-22 (antibody, V domains shown)
VH: EVQLVQSGAEVKKPGASVKVSCKASGYTFTDFWVSWVRQAPGQGLEWMGEIYPNSGVSRYNEKFKGRVTMTVDKSISTAYMELSRLRSDDTAVYYCTKYFGYTYWFGYWGQGTLVTVSS
VL: DIQMTQSPSSLSASVGDRVTITCRASKSVSTYMHWYQQKPGKQPKLLIYSASHLESGVPSRFSGSGSGTDFTLTISSLQPEDFATYYCQQSNELPVTFGGGTKVEIK
notes: humanized
IC50 (human PD-L1-Fc protein [20]): 0.126 µg/mL
EC50 (human PD-L1-Fc protein [21]): 0.0078 µg/mL
EC50 [19]: 0.118 nM
IC50 (human PD-L1-Fc protein [22]): 0.108 µg/mL
Kd [9]: 0.0326 nM
koff [9]: 5.79e-05 s⁻¹
kon [9]: 1.78e+06 M⁻¹ s⁻¹
Kd [16]: 0.0435 nM
koff [16]: 7.26e-05 s⁻¹
kon [16]: 1.67e+06 M⁻¹ s⁻¹

Other lines, results leading:

EC50, NFAT-RE-mediated luminescence, PD1 effector cells co-cultured with PD-L1 target cells [1]: 0.133 nM
Molecule: MPDL3280A (Atezolizumab), Human IgG1 (N297A)-Fc (antibody)

IC50 (human PD-L1-Fc protein [12]): 0.163 µg/mL
IC50 (human PD-L1-Fc protein [13]): 0.029 µg/mL
EC50 (human PD-L1-Fc protein [14]): 0.015 µg/mL
Kd [9]: 0.444 nM
koff [9]: 0.000966 s⁻¹
kon [9]: 2.18e+06 M⁻¹ s⁻¹
EC50 [11]: 0.188 nM
B2: Hu47C6A3-3 (antibody, V domains shown)
VH: B1 VH with I49M, V68I
VL: B1 VL
notes: humanized

IC50 (human PD-L1-Fc protein [17]): 0.14 µg/mL
IC50 (human PD-L1-Fc protein [18]): 0.382 µg/mL
EC50 [19]: 0.11 nM
Kd [9]: 0.0328 nM
koff [9]: 7.25e-05 s⁻¹
kon [9]: 2.21e+06 M⁻¹ s⁻¹
EC50 (human PD-L1-Fc protein [10]): 0.0124 µg/mL
Kd [16]: 0.0353 nM
koff [16]: 9.49e-05 s⁻¹
kon [16]: 2.69e+06 M⁻¹ s⁻¹
B4: Hu67F3G7-7 (antibody, V domains shown)
VH: B5 VH
VL: B5 VL with I2T, Q3V, M4L, Q43A
notes: humanized
